One assay deals with T1, DSG3 (UniProt P32926 50-999, limits assumed).
T1 construct: whole, on cells
T1 sequence (looked up): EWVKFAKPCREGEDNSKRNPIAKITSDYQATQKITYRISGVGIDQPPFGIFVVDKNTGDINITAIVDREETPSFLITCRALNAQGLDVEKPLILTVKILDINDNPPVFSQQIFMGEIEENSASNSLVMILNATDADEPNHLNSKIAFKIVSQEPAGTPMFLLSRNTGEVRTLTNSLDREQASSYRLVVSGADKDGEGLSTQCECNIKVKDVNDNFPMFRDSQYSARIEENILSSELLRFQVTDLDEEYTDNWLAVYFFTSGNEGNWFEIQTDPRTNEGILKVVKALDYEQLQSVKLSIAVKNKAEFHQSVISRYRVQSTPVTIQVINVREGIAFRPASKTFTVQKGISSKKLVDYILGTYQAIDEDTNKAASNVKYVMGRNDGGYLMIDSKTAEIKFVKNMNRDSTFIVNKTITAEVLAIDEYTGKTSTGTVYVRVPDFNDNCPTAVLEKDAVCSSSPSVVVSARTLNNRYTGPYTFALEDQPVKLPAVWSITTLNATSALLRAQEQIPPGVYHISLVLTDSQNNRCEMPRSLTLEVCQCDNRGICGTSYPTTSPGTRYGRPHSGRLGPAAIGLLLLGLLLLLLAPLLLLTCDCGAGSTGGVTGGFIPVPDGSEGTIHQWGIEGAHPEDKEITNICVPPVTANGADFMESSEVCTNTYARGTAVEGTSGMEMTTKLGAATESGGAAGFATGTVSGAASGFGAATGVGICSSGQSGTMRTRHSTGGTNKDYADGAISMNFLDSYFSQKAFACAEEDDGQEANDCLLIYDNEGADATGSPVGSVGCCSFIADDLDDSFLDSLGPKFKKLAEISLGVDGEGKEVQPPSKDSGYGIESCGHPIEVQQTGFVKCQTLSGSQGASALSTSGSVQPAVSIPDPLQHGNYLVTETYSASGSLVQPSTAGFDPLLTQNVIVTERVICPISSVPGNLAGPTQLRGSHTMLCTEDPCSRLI
Briefly: co-immunofluorescence on HSC-4 cells.

The next assay deals with T2, GRPR (UniProt P30550 1-384, limits assumed).
T2 construct: whole, on cells
T2 sequence (P30550 whole entry): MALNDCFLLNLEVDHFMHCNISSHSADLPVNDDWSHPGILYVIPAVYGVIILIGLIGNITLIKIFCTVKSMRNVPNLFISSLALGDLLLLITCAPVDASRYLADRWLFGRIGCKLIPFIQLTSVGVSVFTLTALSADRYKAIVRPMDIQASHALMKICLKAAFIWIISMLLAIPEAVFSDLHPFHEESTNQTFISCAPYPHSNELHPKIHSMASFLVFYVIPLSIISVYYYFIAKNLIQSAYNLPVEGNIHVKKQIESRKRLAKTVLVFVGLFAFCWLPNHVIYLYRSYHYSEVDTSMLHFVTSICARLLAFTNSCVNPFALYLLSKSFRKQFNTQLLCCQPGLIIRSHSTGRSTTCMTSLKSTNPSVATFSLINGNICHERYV
Briefly: co-immunofluorescence on HSC-4 cells.

Another assay has as its target T3, DLL1 (UniProt O00548 18-723, limits assumed).
T3 construct: whole, on cells
T3 sequence (looked up): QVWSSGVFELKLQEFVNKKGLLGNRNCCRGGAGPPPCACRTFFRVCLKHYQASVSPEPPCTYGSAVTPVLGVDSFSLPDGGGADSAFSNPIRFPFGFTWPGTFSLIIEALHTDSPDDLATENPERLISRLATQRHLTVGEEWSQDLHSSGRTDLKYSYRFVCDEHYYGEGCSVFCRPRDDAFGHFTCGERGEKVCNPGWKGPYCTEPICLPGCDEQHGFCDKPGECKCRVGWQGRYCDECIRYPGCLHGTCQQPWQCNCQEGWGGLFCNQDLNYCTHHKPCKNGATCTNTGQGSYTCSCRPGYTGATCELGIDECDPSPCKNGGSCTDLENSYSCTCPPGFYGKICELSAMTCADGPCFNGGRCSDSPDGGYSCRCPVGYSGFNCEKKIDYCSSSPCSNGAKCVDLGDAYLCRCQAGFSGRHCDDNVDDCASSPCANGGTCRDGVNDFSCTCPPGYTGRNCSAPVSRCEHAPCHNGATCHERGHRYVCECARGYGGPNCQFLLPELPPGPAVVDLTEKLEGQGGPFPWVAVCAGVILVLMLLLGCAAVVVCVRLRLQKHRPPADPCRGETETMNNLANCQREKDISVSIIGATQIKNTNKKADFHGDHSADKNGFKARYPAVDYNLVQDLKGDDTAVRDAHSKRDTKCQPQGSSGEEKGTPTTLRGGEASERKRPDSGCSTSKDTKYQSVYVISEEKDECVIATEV
Nature of the assay: co-immunofluorescence on HSC-4 cells.

Assay [1] concerns the target T4, IL6Rα (Interleukin 6 Receptor α) (UniProt P08887 20-468, limits assumed).
T4 sequence (looked up): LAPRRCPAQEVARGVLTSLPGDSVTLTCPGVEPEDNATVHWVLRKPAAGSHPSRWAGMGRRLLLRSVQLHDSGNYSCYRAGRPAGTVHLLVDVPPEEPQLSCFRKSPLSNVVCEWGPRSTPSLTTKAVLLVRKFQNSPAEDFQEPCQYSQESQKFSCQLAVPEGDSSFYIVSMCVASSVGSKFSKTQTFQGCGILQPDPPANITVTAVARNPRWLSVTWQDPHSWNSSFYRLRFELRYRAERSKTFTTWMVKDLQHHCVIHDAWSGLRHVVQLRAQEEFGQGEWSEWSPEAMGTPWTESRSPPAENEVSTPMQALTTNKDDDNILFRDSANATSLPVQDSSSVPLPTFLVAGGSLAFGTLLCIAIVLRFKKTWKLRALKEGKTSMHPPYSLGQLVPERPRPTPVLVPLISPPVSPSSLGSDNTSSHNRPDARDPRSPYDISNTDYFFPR
Nature of the assay: cell-based or functional assay.

No end group written: not given here.

B1: SSTP1 (Temporin1Dau1) (peptide)
peptide: FLPLLISALTSLFPKLGK
modifications: not fully specified
notes: Chemically synthesized mature peptide of 18 residues from frog skin secretion; No C-terminal amide is printed for SSTP1; also called SSTP1-biotin; SSTP1-Alexa Fluor-488
In the case of B1, the binding result in the assay with DSG3, with GRPR and in the assay with DLL1 was “no binding” throughout. In addition, in assay [1], the “growth inhibition of HSC-4 cells, MTT assay, IC50” value stood at 10.2 µM. In addition, the “growth inhibition of MDA-MB-231 cells, MTT assay, IC50” value in assay [1] stood at 4.5 µM.
